B1: T27M, Q93D82 (parent)
chain: MSTAIVTNVKHFGGMGSALRLSEAGHTVACHDESFKQKDELEAFAETYPQLKPMSEQEPAELIEAVTSAYGQVDVLVSNDIFAPEFQPIDKYAVEDYRGAVEALQIRPFALVNAVASQMKKRKSGHIIFITSATPFGPWKELSTYTSARAGACTLANALSKELGEYNIPVFAIGPNYLHSEDSPYFYPTEPWKTNPEHVAHVKKVTALQRLGTQKELGELVAFLASGSCDYLTGQVFWLAGGFPMIERWPGMPE

Variants of: B1
Conditions: Rhizobium radiobacter; pH 7.7; Thermal; CD; Phosphate 5mM; structure 1PWX; whole UniProt chain shown

For MSTAIVTNVKHFGGMGSALRLSEAGHMVACHDESFKQKDELEAFAETYPQLKPMSEQEPAELIEAVTSAYGQVDVLVSNDIFAPEFQPIDKYAVEDYRGAVEALQIRPFALVNAVASQMKKRKSGHIIFITSATPFGPWKELSTYTSARAGACTLANALSKELGEYNIPVFAIGPNYLHSEDSPYFYPTEPWKTNPEHVAHVKKVTALQRLGTQKELGELVAFLASGSCDYLTGQVFWLAGGFPMIERWPGMPE [T27M], the Tm was 65 °C and the “change of melting temperature, mutant - wild type (higher = more stable)” value (“change of melting temperature, mutant” below) was 0 °C.

For MSTAIVTNVKHFGGMGSALRLSEAGHVVACHDESFKQKDELEAFAETYPQLKPMSEQEPAELIEAVTSAYGQVDVLVSNDIFAPEFQPIDKYAVEDYRGAVEALQIRPFALVNAVASQMKKRKSGHIIFITSATPFGPWKELSTYTSARAGACTLANALSKELGEYNIPVFAIGPNYLHSEDSPYFYPTEPWKTNPEHVAHVKKVTALQRLGTQKELGELVAFLASGSCDYLTGQVFWLAGGFPMIERWPGMPE [T27V], the Tm was 64.5 °C and the “change of melting temperature, mutant” value was -0.5 °C.

In the case of MSTAIVTNVKHFGGMGSALRLSEAGHLVACHDESFKQKDELEAFAETYPQLKPMSEQEPAELIEAVTSAYGQVDVLVSNDIFAPEFQPIDKYAVEDYRGAVEALQIRPFALVNAVASQMKKRKSGHIIFITSATPFGPWKELSTYTSARAGACTLANALSKELGEYNIPVFAIGPNYLHSEDSPYFYPTEPWKTNPEHVAHVKKVTALQRLGTQKELGELVAFLASGSCDYLTGQVFWLAGGFPMIERWPGMPE [T27L], the Tm is reported as 65 °C and the “change of melting temperature, mutant” value is reported as 0 °C.

For MSTAIVTNVKHFGGMGSALRLSEAGHTVACHDPSFKQKDELEAFAETYPQLKPMSEQEPAELIEAVTSAYGQVDVLVSNDIFAPEFQPIDKYAVEDYRGAVEALQIRPFALVNAVASQMKKRKSGHIIFITSATPFGPWKELSTYTSARAGACTLANALSKELGEYNIPVFAIGPNYLHSEDSPYFYPTEPWKTNPEHVAHVKKVTALQRLGTQKELGELVAFLASGSCDYLTGQVFWLAGGFPMIERWPGMPE [E33P], the Tm was 64.5 °C and the “change of melting temperature, mutant” value was -0.5 °C.

With MSTAIVTNVKHFGGMGSALRLSEAGMTVACHDESFKQKDELEAFAETYPQLKPMSEQEPAELIEAVTSAYGQVDVLVSNDIFAPEFQPIDKYAVEDYRGAVEALQIRPFALVNAVASQMKKRKSGHIIFITSATPFGPWKELSTYTSARAGACTLANALSKELGEYNIPVFAIGPNYLHSEDSPYFYPTEPWKTNPEHVAHVKKVTALQRLGTQKELGELVAFLASGSCDYLTGQVFWLAGGFPMIERWPGMPE [H26M] the Tm was 64.5 °C and the “change of melting temperature, mutant” value was -0.5 °C.

For MSTAIVTNVKHFGGMGSALRLSEAGHTVAVHDESFKQKDELEAFAETYPQLKPMSEQEPAELIEAVTSAYGQVDVLVSNDIFAPEFQPIDKYAVEDYRGAVEALQIRPFALVNAVASQMKKRKSGHIIFITSATPFGPWKELSTYTSARAGACTLANALSKELGEYNIPVFAIGPNYLHSEDSPYFYPTEPWKTNPEHVAHVKKVTALQRLGTQKELGELVAFLASGSCDYLTGQVFWLAGGFPMIERWPGMPE [C30V], the Tm was 64 °C and the “change of melting temperature, mutant” value was -1 °C.

With MKTAIVTNVKHFGGMGSALRLSEAGHTVACHDESFKQKDELEAFAETYPQLKPMSEQEPAELIEAVTSAYGQVDVLVSNDIFAPEFQPIDKYAVEDYRGAVEALQIRPFALVNAVASQMKKRKSGHIIFITSATPFGPWKELSTYTSARAGACTLANALSKELGEYNIPVFAIGPNYLHSEDSPYFYPTEPWKTNPEHVAHVKKVTALQRLGTQKELGELVAFLASGSCDYLTGQVFWLAGGFPMIERWPGMPE [S2K] the Tm was 66 °C and the “change of melting temperature, mutant” value was 1 °C.

With MSTAIVTNVKHFGGMGAALRLSEAGHTVACHDESFKQKDELEAFAETYPQLKPMSEQEPAELIEAVTSAYGQVDVLVSNDIFAPEFQPIDKYAVEDYRGAVEALQIRPFALVNAVASQMKKRKSGHIIFITSATPFGPWKELSTYTSARAGACTLANALSKELGEYNIPVFAIGPNYLHSEDSPYFYPTEPWKTNPEHVAHVKKVTALQRLGTQKELGELVAFLASGSCDYLTGQVFWLAGGFPMIERWPGMPE [S17A] the Tm was 65 °C and the “change of melting temperature, mutant” value was 0 °C.

With MSTAIVTNVKHFGGMGSALRLAEAGHTVACHDESFKQKDELEAFAETYPQLKPMSEQEPAELIEAVTSAYGQVDVLVSNDIFAPEFQPIDKYAVEDYRGAVEALQIRPFALVNAVASQMKKRKSGHIIFITSATPFGPWKELSTYTSARAGACTLANALSKELGEYNIPVFAIGPNYLHSEDSPYFYPTEPWKTNPEHVAHVKKVTALQRLGTQKELGELVAFLASGSCDYLTGQVFWLAGGFPMIERWPGMPE [S22A] the Tm was 64.5 °C and the “change of melting temperature, mutant” value was -0.5 °C.

With MSTAIVTNVKHFGGMGSALRLSEAGHTVLCHDESFKQKDELEAFAETYPQLKPMSEQEPAELIEAVTSAYGQVDVLVSNDIFAPEFQPIDKYAVEDYRGAVEALQIRPFALVNAVASQMKKRKSGHIIFITSATPFGPWKELSTYTSARAGACTLANALSKELGEYNIPVFAIGPNYLHSEDSPYFYPTEPWKTNPEHVAHVKKVTALQRLGTQKELGELVAFLASGSCDYLTGQVFWLAGGFPMIERWPGMPE [A29L] the Tm was 68 °C and the “change of melting temperature, mutant” value was 3 °C.

With MSTAIVMNVKHFGGMGSALRLSEAGHTVACHDESFKQKDELEAFAETYPQLKPMSEQEPAELIEAVTSAYGQVDVLVSNDIFAPEFQPIDKYAVEDYRGAVEALQIRPFALVNAVASQMKKRKSGHIIFITSATPFGPWKELSTYTSARAGACTLANALSKELGEYNIPVFAIGPNYLHSEDSPYFYPTEPWKTNPEHVAHVKKVTALQRLGTQKELGELVAFLASGSCDYLTGQVFWLAGGFPMIERWPGMPE [T7M] the Tm was 65 °C and the “change of melting temperature, mutant” value was 0 °C.

In the case of MSTAIVFNVKHFGGMGSALRLSEAGHTVACHDESFKQKDELEAFAETYPQLKPMSEQEPAELIEAVTSAYGQVDVLVSNDIFAPEFQPIDKYAVEDYRGAVEALQIRPFALVNAVASQMKKRKSGHIIFITSATPFGPWKELSTYTSARAGACTLANALSKELGEYNIPVFAIGPNYLHSEDSPYFYPTEPWKTNPEHVAHVKKVTALQRLGTQKELGELVAFLASGSCDYLTGQVFWLAGGFPMIERWPGMPE [T7F], the Tm is reported as 65 °C and the “change of melting temperature, mutant” value is reported as 0 °C.

From FireProtDB (doi:10.1093/protein/gzw068)
